The source of these data is patent US20220064281A1 (Ablynx, published 2022).

The target of assay [1] is T1, human membrane TNFα (human, UniProt P01375 1-233).
T1 construct: whole, on cells; also called membrane expressed TNFα
The assay can be described thus: flow cytometry, human membrane TNFα expressing HEK293H cells, fixed cells, 24 h at room temperature. The procedure: (§1) Briefly, cells were seeded at a density of 1×10⁴ cells/well and incubated with a dilution series of F027500069 starting from 100 nM up to 0.5 pM, for 1 hour at 4° C. In parallel, cells were fixed with 4% paraformaldehyde and 0.1% Glutaraldehyde in PBS, before seeding (to increase detection of membrane bound TNFα) and incubated with a dilution series of ISVD for 1 hour at 4° C. or for 24 hours at room temperature. Cells were washed 3 times and subsequently incubated with an anti-VHH mAb for 30 min at 4° C., washed again, and incubated for 30 min at 4° C. with a goat anti-mouse PE labelled antibody. Samples were washed and resuspended in FACS Buffer (D-PBS with 10% FBS and 0.05% sodium azide supplemented with 5 nM TOPRO3). Cell suspensions were then analysed on an iQuescreener. EC50 values were calculated using GraphPad Prism.

Assay [2] addresses T2, cyno IL-23 (cynomolgus monkey).
T2 construct: also called recombinant IL-23 from cynomolgus monkey
The experiment in a line: Gyrolab in-solution affinity, 48 h incubation. The text has this:
(§2) Biotinylated human TNFα/IL-23/serum albumin was captured in the microstructures of a Gyrolab Bioaffy 1000 CD, which contains columns of beads and is used as a molecular probe to capture free F027500069 from the equilibrated solution. The mixture of TNFα/IL-23/serum albumin and F027500069 (containing free TNFα/IL-23/serum albumin, free F027500069 and TNFα/IL-23/serum albumin—F027500069 complexes) was allowed to flow through the beads, and a small percentage of free F027500069 was captured, which is proportional to the free ISVD concentration. A fluorescently labelled anti-VHH antibody was then injected to label any captured F027500069 and after rinsing away excess of fluorescent probe, the change in fluorescence was determined. Fitting of the dilution series was done using Gyrolab Analysis software, where KD⁻ and receptor-controlled curves were analyzed to determine the KD value.

For assay [3], the target named is T3, cyno TNFα (cynomolgus monkey, UniProt P79337 77-233).
T3 construct: also called cynomolgus monkey TNFα
T3 sequence (P79337 77-233 limits assumed): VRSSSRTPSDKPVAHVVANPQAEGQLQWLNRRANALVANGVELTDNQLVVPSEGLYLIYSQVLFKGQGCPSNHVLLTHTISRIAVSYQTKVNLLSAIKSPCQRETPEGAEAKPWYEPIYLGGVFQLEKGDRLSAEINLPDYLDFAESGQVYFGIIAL
The experiment in a line: Gyrolab in-solution affinity, 48 h incubation.
Description: as §2

Assay [4] concerns the target T4, human TNFα (human, UniProt P01375 77-233).
T4 construct: Biotinylated human TNFα served as capture probe in the Gyrolab assay; also called hTNFα; Tumor Necrosis Factor alpha
The assay can be described thus: Gyrolab in-solution affinity, 48 h incubation.
Description: as §2

For assay [5], the target named is T1, human membrane TNFα. The assay can be described thus: flow cytometry, human membrane TNFα expressing HEK293H cells, viable cells, 1 h at 4 °C. On the procedure: as §1
A general note: Flow cytometry measures light scatter and fluorescence of single cells or particles in a stream.

For assay [6], the target named is T2, cyno IL-23. The assay can be described thus: Gyrolab in-solution affinity, 24 h incubation.
Description: as §2

Assay [7] addresses T3, cyno TNFα. The assay can be described thus: Gyrolab in-solution affinity, 24 h incubation.
Description: as §2

Assay [8] has as its target T4, human TNFα. The assay can be described thus: Gyrolab in-solution affinity, 24 h incubation.
Description: as §2

Assay [9] deals with T1, human membrane TNFα. The experiment in a line: flow cytometry, human membrane TNFα expressing HEK293H cells, fixed cells, 1 h at 4 °C. The procedure:
as §1

A further assay deals with T5, human serum albumin (human, UniProt P02768 25-609).
T5 construct: also called HSA; SA (human)
T5 sequence (P02768 25-609 limits assumed): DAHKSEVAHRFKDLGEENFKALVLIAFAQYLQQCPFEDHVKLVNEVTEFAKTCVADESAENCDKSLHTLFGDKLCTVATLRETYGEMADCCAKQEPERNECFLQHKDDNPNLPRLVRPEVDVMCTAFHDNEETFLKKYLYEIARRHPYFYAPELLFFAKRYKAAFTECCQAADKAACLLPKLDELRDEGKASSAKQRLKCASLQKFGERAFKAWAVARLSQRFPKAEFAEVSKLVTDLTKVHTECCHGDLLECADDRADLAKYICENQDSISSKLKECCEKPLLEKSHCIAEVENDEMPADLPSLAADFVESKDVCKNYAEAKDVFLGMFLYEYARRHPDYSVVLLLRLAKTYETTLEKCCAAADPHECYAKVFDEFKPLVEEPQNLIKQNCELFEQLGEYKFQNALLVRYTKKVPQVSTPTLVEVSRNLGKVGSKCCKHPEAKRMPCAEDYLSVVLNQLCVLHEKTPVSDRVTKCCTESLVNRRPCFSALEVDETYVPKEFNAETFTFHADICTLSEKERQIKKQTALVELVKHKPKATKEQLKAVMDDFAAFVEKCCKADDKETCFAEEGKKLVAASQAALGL
The assay can be described thus: Gyrolab in-solution affinity, 2 h incubation.
Description: as §2

In another assay the target is T6, cyno serum albumin (cynomolgus monkey, UniProt A2V9Z4 25-608).
T6 construct: also called SA (cynomolgus monkey)
T6 sequence (A2V9Z4 25-608 limits assumed): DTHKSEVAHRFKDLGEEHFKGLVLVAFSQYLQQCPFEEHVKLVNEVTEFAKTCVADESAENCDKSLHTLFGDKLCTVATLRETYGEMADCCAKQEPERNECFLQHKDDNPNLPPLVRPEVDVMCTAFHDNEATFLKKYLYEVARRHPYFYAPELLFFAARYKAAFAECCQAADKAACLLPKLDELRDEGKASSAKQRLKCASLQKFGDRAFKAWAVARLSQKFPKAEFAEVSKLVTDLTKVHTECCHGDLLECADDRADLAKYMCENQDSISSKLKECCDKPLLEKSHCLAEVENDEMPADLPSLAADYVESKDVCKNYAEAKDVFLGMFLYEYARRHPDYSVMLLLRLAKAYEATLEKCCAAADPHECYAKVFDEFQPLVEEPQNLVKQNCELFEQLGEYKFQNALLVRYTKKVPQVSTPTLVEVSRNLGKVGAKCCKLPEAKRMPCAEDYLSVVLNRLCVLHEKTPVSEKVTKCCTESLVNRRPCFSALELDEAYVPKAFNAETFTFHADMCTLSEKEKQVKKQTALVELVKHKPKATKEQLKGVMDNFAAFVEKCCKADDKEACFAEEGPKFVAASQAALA
The assay can be described thus: Gyrolab in-solution affinity, 2 h incubation.
Description: as §2

Assay [10] addresses T3, cyno TNFα. The assay can be described thus: cell-based or functional assay.
The target in assay [11] is T4, human TNFα. The experiment in a line: cell-based or functional assay.
The target in a further assay is T7, human TL-1A (human, UniProt O95150 72-251).
T7 construct: also called huTL-1A
T7 sequence (looked up): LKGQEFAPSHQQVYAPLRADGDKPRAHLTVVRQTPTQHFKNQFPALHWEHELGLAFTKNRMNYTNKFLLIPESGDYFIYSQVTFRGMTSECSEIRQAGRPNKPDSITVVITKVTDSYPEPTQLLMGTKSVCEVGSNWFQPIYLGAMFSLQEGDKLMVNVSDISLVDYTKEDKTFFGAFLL
The assay can be described thus: SPR, target immobilized by amine coupling, F027500069 injected. On the procedure: (§3) Absence of binding to TNFα and IL-23 related human cytokines was assessed via SPR. hIL-12 was tested, as it shares the p40 subunit with IL-23. TNF superfamily members human FASL, TNFβ, LIGHT, TL-1A, RANKL were tested as related cytokines for TNFα.
(§4) Next, 1 μM of F027500069 was injected for 2 minutes and allowed to dissociate for 900s at a flow rate of 45 μL/min. As running buffer 1×HBS-EP+ pH7.4 was used. As positive controls, 0.2 μM α-huIL-12 Ab and 0.5 μM α-huFASL Ab, 0.5 μM α-huTNFβ Ab, 0.5 μM α-huLIGHT Ab, 0.5 μM α-huTL-1A Ab and 0.5 μM α-huRANKL VHH were injected. Interaction between F027500069 and the positive controls with the immobilized targets was measured by detection of increases in […] which occurs as a result of mass changes on the chip upon binding.
(In general: SPR reads the build-up and loss of mass on a sensor chip optically.)

The target in another assay is T8, human LIGHT (human, UniProt O43557 74-240, limits assumed).
T8 construct: also called huLIGHT
T8 sequence (O43557 74-240 limits assumed): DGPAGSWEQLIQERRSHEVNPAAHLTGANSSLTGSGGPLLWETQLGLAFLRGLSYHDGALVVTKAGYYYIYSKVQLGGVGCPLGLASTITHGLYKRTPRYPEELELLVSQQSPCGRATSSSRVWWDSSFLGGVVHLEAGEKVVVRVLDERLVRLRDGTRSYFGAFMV
The description is as above. The procedure:
as §3, §4

The target in the next assay is T9, human RANKL (human, UniProt O14788 140-317, limits assumed).
T9 construct: also called huRANKL
T9 sequence (looked up): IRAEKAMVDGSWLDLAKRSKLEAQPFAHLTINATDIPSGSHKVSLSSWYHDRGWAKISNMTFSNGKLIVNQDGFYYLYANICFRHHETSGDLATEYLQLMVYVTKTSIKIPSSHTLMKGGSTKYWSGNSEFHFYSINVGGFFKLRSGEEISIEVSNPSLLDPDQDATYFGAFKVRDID
Described as above. On the procedure: as §3, §4

The next assay concerns the target T10, human IL-12 (human, UniProt P29459 23-219; P29460 23-328).
T10 construct: also called hIL-12
T10 sequence (looked up) 1: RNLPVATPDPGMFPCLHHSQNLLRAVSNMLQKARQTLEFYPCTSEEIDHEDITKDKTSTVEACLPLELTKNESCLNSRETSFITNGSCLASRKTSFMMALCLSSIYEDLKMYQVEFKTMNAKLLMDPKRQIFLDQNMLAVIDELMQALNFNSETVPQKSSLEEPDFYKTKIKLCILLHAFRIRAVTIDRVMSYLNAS
T10 sequence (looked up) 2: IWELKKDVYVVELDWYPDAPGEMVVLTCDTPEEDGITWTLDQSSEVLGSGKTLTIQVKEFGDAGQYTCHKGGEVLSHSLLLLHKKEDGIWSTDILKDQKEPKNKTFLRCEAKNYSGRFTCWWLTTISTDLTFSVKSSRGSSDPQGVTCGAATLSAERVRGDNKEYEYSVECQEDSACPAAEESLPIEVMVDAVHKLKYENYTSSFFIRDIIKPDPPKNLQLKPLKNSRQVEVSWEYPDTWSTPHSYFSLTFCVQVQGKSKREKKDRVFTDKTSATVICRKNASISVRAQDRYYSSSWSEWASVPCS
The assay is described as above. The procedure:
as §3, §4

The target in a further assay is T11, human TNFβ (human, UniProt P01374 35-205).
T11 construct: also called huTNFβ
T11 sequence (looked up): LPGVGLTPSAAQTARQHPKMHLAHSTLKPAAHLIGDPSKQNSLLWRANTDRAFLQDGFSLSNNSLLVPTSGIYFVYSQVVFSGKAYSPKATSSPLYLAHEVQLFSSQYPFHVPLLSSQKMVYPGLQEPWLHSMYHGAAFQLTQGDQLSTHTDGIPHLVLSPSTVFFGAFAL
The assay is described as above. On the procedure: as §3, §4

The next assay has as its target T12, human FASL (human, UniProt P48023 134-281, limits assumed).
T12 construct: also called huFASL
T12 sequence (looked up): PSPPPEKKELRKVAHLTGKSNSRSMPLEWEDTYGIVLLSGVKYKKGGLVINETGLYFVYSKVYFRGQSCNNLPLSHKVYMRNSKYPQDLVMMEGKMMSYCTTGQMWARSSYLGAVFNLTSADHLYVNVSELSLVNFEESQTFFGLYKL
The description is as above. The procedure: as §3, §4

For assay [12], the target named is T2, cyno IL-23. The experiment in a line: cell-based or functional assay.
Assay [13] concerns the target T1, human membrane TNFα. The assay can be described thus: flow cytometry, human membrane TNFα expressing HEK293H cells, fixed cells. On the procedure: as §1
The target of the next assay is T13, OX40L (human, UniProt P23510).
T13 construct: soluble recombinant protein; also called hOX40L
T13 sequence (ligand chain, looked up): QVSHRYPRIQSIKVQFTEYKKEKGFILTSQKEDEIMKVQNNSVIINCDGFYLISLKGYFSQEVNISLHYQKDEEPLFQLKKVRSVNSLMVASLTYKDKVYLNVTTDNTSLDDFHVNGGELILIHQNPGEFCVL
The experiment in a line: SPR (ProteOn XPR36): 100 nM F027500069 captured on immobilized HSA, then 100 nM hOX40L injected for 2 min, alone or mixed with 100 nM IL-23 or TNFα, followed by 600 s dissociation. On the procedure: A ProteOn XPR36 instalment was used to determine whether F027500069 can bind simultaneously to hTNFα and hIL-23. To this end HSA was immobilized on a GLC ProteOn Sensor chip via amine coupling. 100 nM of F027500069 was injected for 2 min at 10 μl/min over the HSA surface in order to capture the ISVD via the ALB23002 building block. Subsequently either 100 nM of hIL-23, hTNFα or hOX40L were injected or mixtures of 100 nM IL-23+100 nM TNFα, 100 nM IL-23+100 nM OX40L or 100 nM TNFα+[…], at a flow rate of 10 μl/min for 2 min followed by a subsequent 600 seconds dissociation step. The HSA surfaces were regenerated with a 2-minute injection of HCl (100 mM) at 45 μl/min.

T4 sequence (P01375 77-233 limits assumed): as the sequence (P79337 77-233 limits assumed) above, with V37L, T44R, N72T, L138R counted along it
T1 sequence (P01375 whole entry): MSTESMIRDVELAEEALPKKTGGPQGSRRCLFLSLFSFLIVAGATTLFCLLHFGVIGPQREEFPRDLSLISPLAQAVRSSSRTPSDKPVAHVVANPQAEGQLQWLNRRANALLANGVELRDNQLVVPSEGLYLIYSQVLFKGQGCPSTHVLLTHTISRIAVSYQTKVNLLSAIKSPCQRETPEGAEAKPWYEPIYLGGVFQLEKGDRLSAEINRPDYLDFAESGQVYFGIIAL

B1: F027500069 (VHH)
chain: DVQLVESGGGVVQPGGSLRLSCTASGFTFSTADMGWFRQAPGKGREFVARISGIDGTTYYDEPVKGRFTISRDNSKNTVYLQMNSLRPEDTALYYCRSPRYADQWSAYDYWGQGTLVTVSSGGGGSGGGSEVQLVESGGGVVQPGGSLRLSCAASGRIFSLPASGNIFNLLTIAWYRQAPGKQRELVATIESGSRTNYADSVKGRFTISRDNSKKTVYLQMNSLRPEDTALYYCQTSGSGSPNFWGQGTLVTVSSGGGGSGGGSEVQLVESGGGVVQPGGSLRLSCAASGFTFRSFGMSWVRQAPGKGPEWVSSISGSGSDTLYADSVKGRFTISRDNSKNTLYLQMNSLRPEDTALYYCTIGGSLSRSSQGTLVTVSSGGGGSGGGSEVQLVESGGGVVQPGGSLRLSCAASGRTLSSYAMGWFRQAPGKEREFVARISQGGTAIYYADSVKGRFTISRDNSKNTVYLQMNSLRPEDTALYYCAKDPSPYYRGSAYLLSGSYDSWGQGTLVKVSSA
notes: produced in Pichia pastoris; also called F02750069; ISVD construct F027500069
A word on the EC50: it is the concentration that produces a half-maximal response. A higher EC50 goes with lower potency in that assay. What is called Kd is the equilibrium constant for the complex coming apart. A high value points to weaker binding. B1: the EC50 with human membrane TNFα [1] was 0.122 nM; with human membrane TNFα [5] it was 0.693 nM; with human membrane TNFα [9] it was 0.811 nM. In addition, the Kd with cyno IL-23 [2] was 0.0512 nM; with cyno TNFα [3], 0.0186 nM; in the assay with human TNFα [4] it was 0.00339 nM; in the assay with cyno IL-23 [6] it was 0.0335 nM; with cyno TNFα [7], 0.0275 nM; with human TNFα [8] it was 0.00323 nM. The Kd with human serum albumin was found to be 5.9 nM; with cyno serum albumin, 10.8 nM. In addition, the “NFkB assay IC50 (M); Glo Response HEK293_NFkB-NLucP reporter assay, 70 pM cyno TNFα” value with cyno TNFα [10] worked out at 1.28e-10 M. Moreover, the “NFkB assay IC50 (M); Glo Response HEK293_NFkB-NLucP reporter assay, 25 pM human TNFα” value in the assay with human TNFα [11] is 3.88e-11 M. Further, the binding result with human TL-1A, in the assay with human LIGHT, with human RANKL, in the assay with human IL-12, with human TNFβ and in the assay with human FASL was “no binding (tested: 1 µM)” each time. In the assay with OX40L, the binding result was “no binding (tested: 100 nM)”. Moreover, the “IL-23 reporter assay IC50 (M); Glo Response HEK293_human IL-23R/IL-12Rb1-Luc2P, 40 pM cyno IL-23” value with cyno IL-23 [12] came to 3.23e-10 M. In addition, the “Mouse splenocyte assay IC50 (M); IL-23-induced mIL-22 production, 36 pM cyno IL-23” value with cyno IL-23 [12] came to 3.07e-11 M. The “fold improvement of the EC50 (24 hours against 1 hour incubation)” value with human membrane TNFα [13] came to 6.6 fold.
